For three molecules, EC50, IC50 and Kd results are on record in US20250223354A1 (BIOTHEUS, published 2025).

The target of assay [1] is T1, human PVRIG expressed on cells (human, UniProt Q6DKI7 41-326).
T1 construct: whole, on cells; cDNA encoding human PVRIG in pCHO1.0 for CHO cells; also called CHO-huPVRIG cells
T1 sequence (looked up): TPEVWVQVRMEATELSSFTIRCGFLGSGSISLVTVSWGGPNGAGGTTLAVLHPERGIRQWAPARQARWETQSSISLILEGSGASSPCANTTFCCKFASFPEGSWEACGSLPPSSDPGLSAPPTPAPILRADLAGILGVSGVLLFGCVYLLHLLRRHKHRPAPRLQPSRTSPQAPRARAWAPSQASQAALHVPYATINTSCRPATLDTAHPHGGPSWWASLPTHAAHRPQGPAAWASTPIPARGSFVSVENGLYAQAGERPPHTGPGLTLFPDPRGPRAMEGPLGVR
Nature of the assay: flow cytometry, CHO-huPVRIG cells. As for the experimental part: (§1) The overexpressing cells were expanded and adjusted to an appropriate cell density, and added to a 96-well flow cytometry plate. After centrifugation, the cells were added with a gradiently diluted sample to be tested, and incubated at 4° C. for 30 minutes. The cells were washed twice with PBS, and added with a fluorescent secondary antibody correspondingly diluted to an appropriate concentration, then incubated at 4° C. for 30 minutes, and washed twice with PBS. Cells were resuspended with PBS, and detected on a CytoFlex flow cytometer, and the corresponding MFI was calculated. Graphpad software was used for graphical analysis to obtain EC₅₀ values.

For assay [2], the target named is T2, mouse PVRIG overexpressed on CHO cells (mouse, UniProt A0A1B0GS01 1-234).
T2 construct: also called CHO-muPVRIG cells
T2 sequence: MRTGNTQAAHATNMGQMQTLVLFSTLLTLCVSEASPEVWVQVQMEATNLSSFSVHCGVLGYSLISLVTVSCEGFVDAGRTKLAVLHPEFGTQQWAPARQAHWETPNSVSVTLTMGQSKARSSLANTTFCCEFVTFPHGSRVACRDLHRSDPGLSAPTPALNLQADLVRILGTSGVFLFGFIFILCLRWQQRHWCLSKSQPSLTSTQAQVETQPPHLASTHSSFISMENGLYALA
Nature of the assay: flow cytometry, CHO-muPVRIG cells. The procedure: as §1

Assay [3] deals with T3, cynomolgus PVRIG overexpressed on CHO cells (cynomolgus, UniProt A0A2K5WVV8 1-322).
T3 construct: whole, on cells; also called CHO-cynoPVRIG cells
T3 sequence: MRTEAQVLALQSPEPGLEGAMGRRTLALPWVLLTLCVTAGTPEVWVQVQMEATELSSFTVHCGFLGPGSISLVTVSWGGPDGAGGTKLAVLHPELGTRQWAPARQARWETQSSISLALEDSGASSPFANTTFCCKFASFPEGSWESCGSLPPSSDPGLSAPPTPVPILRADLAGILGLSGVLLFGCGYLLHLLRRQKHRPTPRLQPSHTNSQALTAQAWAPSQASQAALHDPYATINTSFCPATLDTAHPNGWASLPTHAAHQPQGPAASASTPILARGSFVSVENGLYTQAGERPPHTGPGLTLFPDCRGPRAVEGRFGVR
Nature of the assay: flow cytometry, CHO-cynoPVRIG cells. As for the experimental part: as §1

The target of assay [4] is Biotin-labeled mouse PVRIG huFc protein (mouse). As to the kind of experiment: competition ELISA: biotin mouse PVRIG-huFc binding to coated mouse CD112-his. The procedure:
Specifically, mouse CD112-his protein diluted with 1× coating buffer to a final concentration of 1 μg/mL was added to the ELISA plate at 100 μL/well, covered with the film, and coated overnight at 4° C. The coating solution in the ELISA plate was discarded, and the ELISA plate was washed three times with 1×PBST and was blocked with 5% BSA/PBS at 200 μL/well for 2 hours at room temperature. During the blocking period, the samples to be tested were gradient diluted with 1% BSA/PBS to a final volume of 60 μL/well. […] The blocking solution in the ELISA plate was discarded, and the above sample mixture was added at 100 μL/well and incubated for 2 hours at room temperature. The above co-incubated samples were discarded, the ELISA plate was washed three times with 1×PBST, and SA-HRP diluted with 1% BSA/PBS was added at 100 μL/well and incubated for 1 hour at room temperature. The SA-HRP dilution was discarded, the ELISA plate was washed three times with 1×PBST, ELISA Chromogen Solution was added at 100 μL/well and incubated for 1-3 minutes at room temperature, ELISA stopping solution was added at 50 μL/well and the absorbance values were read at 450 nm.

In assay [5] the target is T4, human PVRIG protein with mouse IgG2a Fc tag (human; mouse, UniProt Q6DKI7 41-171, limits assumed).
T4 construct: Whole entry named; not shown: mouse IgG2a Fc tag
T4 sequence (looked up): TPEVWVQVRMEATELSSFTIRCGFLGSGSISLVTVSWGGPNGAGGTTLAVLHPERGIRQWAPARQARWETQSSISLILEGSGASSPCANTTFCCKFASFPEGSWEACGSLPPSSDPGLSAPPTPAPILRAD
As to the kind of experiment: flow cytometry, competition: human PVRIG-mouse IgG2a Fc (1 ug/mL) binding to CHO-huCD112 cells. The procedure: Specifically, CHO cells overexpressing human CD112 (CHO-huCD112 cells) were generated by transfection of the pCHO1.0 vector (purchased from Invitrogen) with cDNA encoding human CD112 cloned into the multiple cloning site (MCS), respectively, followed by pressure screening. The CHO-huCD112 cells were expanded and adjusted to a cell density of 2×10⁶ cells/mL, added to a 96-well flow plate at 100 μL/well, and centrifuged for later use. The purified monoclonal antibody was gradient diluted with PBS and the diluted sample was added to a blank 96-well flow plate at 60 μL/well. […] The above incubated samples were added at 100 μL/well to the 96-well flow plate containing CHO-huCD112 cells, incubated at 4° C. for 30 min and washed twice with PBS. APC-conjugated goat anti-mouse IgG antibody diluted 100-fold with PBS was added at 100 μL/well, incubated at 4° C. for 30 minutes and washed twice with PBS. Cells were resuspended with PBS at 100 μL/well, and detected on a CytoFlex flow cytometer, and the corresponding MFI was calculated.

Assay [6] deals with T5, human TIGIT expressed on cells (human, UniProt Q495A1 22-244).
T5 construct: whole, on cells; cDNA encoding human TIGIT in pCHO1.0 for CHO cells; also called CHO-huTIGIT cells
T5 sequence (looked up): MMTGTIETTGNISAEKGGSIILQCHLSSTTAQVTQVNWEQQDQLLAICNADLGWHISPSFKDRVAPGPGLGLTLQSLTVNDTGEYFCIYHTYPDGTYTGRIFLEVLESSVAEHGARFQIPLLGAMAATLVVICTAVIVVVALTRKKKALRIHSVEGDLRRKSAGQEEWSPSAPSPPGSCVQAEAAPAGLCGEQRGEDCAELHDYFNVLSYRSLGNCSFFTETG
As to the kind of experiment: flow cytometry, CHO-huTIGIT cells.
Text: as §1, with “Specifically, CHO cells overexpressing human TIGIT (CHO-huTIGIT cells), CHO cells overexpressing cynomolgus TIGIT (CHO-cynoTIGIT cells) and CHO cells overexpressing mouse TIGIT (CHO-muTIGIT cells) were generated by transfection of the pCHO1.0 vector (purchased from Invitrogen) with cDNA encoding human TIGIT, cynomolgus TIGIT and mouse TIGIT cloned into the multiple cloning site (MCS), respectively, followed by pressure screening. The overexpressing” for “The overexpressing”

For assay [7], the target named is T6, cynomolgus TIGIT overexpressed on CHO cells (cynomolgus, UniProt A0A7N9I9V4 89-312).
T6 construct: whole, on cells; also called CHO-cynoTIGIT cells
T6 sequence (A0A7N9I9V4 entry or part of it): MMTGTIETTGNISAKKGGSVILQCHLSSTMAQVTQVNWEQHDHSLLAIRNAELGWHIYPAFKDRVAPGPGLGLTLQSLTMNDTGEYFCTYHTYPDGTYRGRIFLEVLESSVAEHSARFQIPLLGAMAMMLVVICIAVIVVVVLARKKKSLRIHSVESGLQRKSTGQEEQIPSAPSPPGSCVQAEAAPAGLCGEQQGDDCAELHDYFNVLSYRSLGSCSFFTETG
As to the kind of experiment: flow cytometry, CHO-cynoTIGIT cells.
Text: as §1, with “Specifically, CHO cells overexpressing human TIGIT (CHO-huTIGIT cells), CHO cells overexpressing cynomolgus TIGIT (CHO-cynoTIGIT cells) and CHO cells overexpressing mouse TIGIT (CHO-muTIGIT cells) were generated by transfection of the pCHO1.0 vector (purchased from Invitrogen) with cDNA encoding human TIGIT, cynomolgus TIGIT and mouse TIGIT cloned into the multiple cloning site (MCS), respectively, followed by pressure screening. The overexpressing” for “The overexpressing”

The target in the next assay is T7, human TIGIT-his protein (human, UniProt Q495A1 22-141).
T7 construct: not shown: his tag
T7 sequence: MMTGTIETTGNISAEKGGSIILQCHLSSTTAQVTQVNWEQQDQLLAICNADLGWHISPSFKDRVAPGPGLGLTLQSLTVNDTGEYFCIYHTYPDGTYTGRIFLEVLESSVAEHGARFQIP
Nature of the assay: BLI (ForteBio), IgG on AHQ sensor, 100 nM TIGIT-his, monovalent, 1:1 model. The procedure:
(§2) Biofilm layer optical interference technology (ForteBio) was used to determine the binding and dissociation […] values of the anti-TIGIT monoclonal antibodies obtained in Example 1 to human, cynomolgus monkey and mouse TIGIT. Fortebio affinity measurements were performed according to existing methods (Este, P et al., High throughput solution-based measurement of antibody-antigen affinity and epitope binning. Mabs, 2013.5(2): p 270-8).
(§3) The antibody-loaded sensor was incubated in 100 nM TIGIT-his antigen to the plateau phase, and then the sensor was transferred to an analysis buffer and incubated for at least 2 minutes for measuring dissociation rate. The kinetic analysis was performed using a 1:1 binding model.

Assay [8] concerns the target T8, cynomolgus monkey TIGIT-his protein (cynomolgus monkey).
T8 construct: also called Cynomolgus TIGIT-his; not shown: his tag
Described as above. As for the experimental part:
as §2, §3

For assay [9], the target named is T5, human TIGIT expressed on cells. As to the kind of experiment: flow cytometry, competition with human CD155-mouse IgG2a Fc (2 ug/mL) on CHO-huTIGIT cells. As for the experimental part: (§4) Specifically, the CHO-huTIGIT cells were expanded and adjusted to a cell density of 2×10⁶ cells/mL, added to a 96-well flow plate at 100 μL/well, and centrifuged for later use. The purified monoclonal antibodies were diluted 3-fold with PBS starting at 400 nM for a total of 12 concentration gradients. The diluted sample was added at 60 μL/well to the cells-carrying 96-well flow plate, and incubated at 4° C. for 30 minutes. […] APC-conjugated goat anti-mouse IgG antibody diluted 100-fold with PBS was added at 100 μL/well, incubated at 4° C. for 30 minutes, and washed twice with PBS. Cells were resuspended with PBS at 100 μL/well, and detected on a CytoFlex flow cytometer, and the corresponding MFI was calculated.

The target is the same in assay [10]. As to the kind of experiment: flow cytometry on activated human primary T cells (TIGIT), readout positive cell (%); unit from the concentration axis. From the text: The binding activity of the anti-TIGIT antibody of the present invention to TIGIT on the surface of activated T cells was detected based on the flow cytometry detection method.
Specifically, human PBMC were sorted according to the experimental protocol provided by […] Company (stemcell, Cat. No.: #17951C) to obtain human total T cells. […] The activated T cells were adjusted to an appropriate cell density and added to a 96-well flow cytometry plate. After centrifugation, the gradiently diluted sample to be tested was added, and incubated at 4° C. for 30 minutes. Washing was carried out twice with PBS, and a fluorescent secondary antibody diluted to an appropriate concentration was added, incubated at 4° C. for 30 minutes, and washed twice with PBS. […]

Assay [11] shares this target. As to the kind of experiment: flow cytometry on CHO cells overexpressing human TIGIT, median fluorescence intensity PE-A; unit from the concentration axis.
Text: as §1, with “Specifically, CHO cells overexpressing human TIGIT (CHO-huTIGIT cells), CHO cells overexpressing cynomolgus TIGIT (CHO-cynoTIGIT cells) and CHO cells overexpressing mouse TIGIT (CHO-muTIGIT cells) were generated by transfection of the pCHO1.0 vector (purchased from Invitrogen) with cDNA encoding human TIGIT, cynomolgus TIGIT and mouse TIGIT cloned into the multiple cloning site (MCS), respectively, followed by pressure screening. The overexpressing” for “The overexpressing”

The target in assay [12] is T6, cynomolgus TIGIT overexpressed on CHO …. As to the kind of experiment: flow cytometry on CHO cells overexpressing cynomolgus TIGIT, median fluorescence intensity PE-A; unit from the concentration axis.
Text: as §1, with “Specifically, CHO cells overexpressing human TIGIT (CHO-huTIGIT cells), CHO cells overexpressing cynomolgus TIGIT (CHO-cynoTIGIT cells) and CHO cells overexpressing mouse TIGIT (CHO-muTIGIT cells) were generated by transfection of the pCHO1.0 vector (purchased from Invitrogen) with cDNA encoding human TIGIT, cynomolgus TIGIT and mouse TIGIT cloned into the multiple cloning site (MCS), respectively, followed by pressure screening. The overexpressing” for “The overexpressing”

Assay [13] has as its target T5, human TIGIT expressed on cells. Nature of the assay: flow cytometry blocking assay: binding of human CD155 protein with mouse IgG2a Fc tag to CHO cells overexpressing human TIGIT, median fluorescence intensity APC-A; unit from the concentration axis. The procedure: as §4

T8 sequence (chain, as listed by the source): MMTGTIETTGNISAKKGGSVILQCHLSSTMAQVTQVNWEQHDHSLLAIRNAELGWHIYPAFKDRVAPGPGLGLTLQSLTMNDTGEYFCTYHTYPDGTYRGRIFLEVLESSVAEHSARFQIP

B1: anti-PVRIG monoclonal antibody ADI-56127-G1 (antibody, human IgG1, V domains shown)
VH: QVQLVQSGAEVKKPGSSVKVSCKASGGTESVDAISWVRQAPGQGLEWMGDIIPFFDTDYAQKFQGRVTITADESTSTAYMELSSLRSEDTAVYYCAREGGTSWTHFFDLWGRGTLVTVSS
VL: not shown
notes: Wild-type human IgG1 heavy chain constant region, human kappa light chain constant region; HEK293
For the molecule B1, the EC50 was determined as 2.51 nM in [1], 6.47 nM in [2] and 1.96 nM in assay [3]. In addition, the IC50 in [4] is 1.57 nM; in [5] it was 1.23 nM.

B2: anti-PVRIG monoclonal antibody ADI-56127-G1LALA (antibody, human IgG1, V domains shown)
VH: QVQLVQSGAEVKKPGSSVKVSCKASGGTESVDAISWVRQAPGQGLEWMGDIIPFFDTDYAQKFQGRVTITADESTSTAYMELSSLRSEDTAVYYCAREGGTSWTHFFDLWGRGTLVTVSS
VL: not shown
notes: Human IgG1 heavy chain constant region modified by L234A, L235A; human kappa light chain constant region; HEK293
For the molecule B2, the EC50 is 2.44 nM in [1], 5.38 nM in [2] and 1.98 nM in [3]. Moreover, the results for the IC50 in assay [4] and in assay [5] were 1.78 nM and 1.36 nM, respectively.

B3: Tiragolumab (antibody, V domains shown)
VH: EVQLQQSGPGLVKPSQTLSLTCAISGDSVSSNSAAWNWIRQSPSRGLEWLGKTYYRFKWYSDYAVSVKGRITINPDTSKNQFSLQLNSVTPEDTAVFYCTRESTTYDLLAGPFDYWGQGTLVTVSS
VL: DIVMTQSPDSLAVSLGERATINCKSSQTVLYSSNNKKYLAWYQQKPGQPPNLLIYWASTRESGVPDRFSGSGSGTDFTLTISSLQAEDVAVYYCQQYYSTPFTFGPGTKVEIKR
Consider B3, for which the EC50 in [6] turned out to be 1.35 nM; in assay [7] it was 4.18 nM; in [10], 0.274 nM; in assay [11], 1.34 nM; in assay [12], 4.18 nM. Further, the Kd with human TIGIT-his protein was 0.87 nM; in [8] it was 3.5 nM. Moreover, the figures for the IC50 in assay [9] and in [13] were 0.63 nM and 0.634 nM, respectively.
